Experimental data taken from patent US20180362632A1 (published 2018).
Changes are numbered by the printed parent chain. “And” between values parts separate entries of the source, which are not always exact repeats. Identical values can stand only once. Like-named read-outs stand apart in the source and are kept apart here.

B1: 50C5 chimera (antibody, V domains shown)
VH: QVQLQQSAAELVRPGASVKMSCKASGYIFTPYSIHWIKQRPGQGLEWIGYINPSTGYIEYNQHFKDRTTLTADKSSSTAYMQLRSLTSEDSAVYYCARGGDYEGYFDYWGQGTTLTVSS
VL: DIQMTQSPDSLSASVGETVTITCRLNENIYSFLAWYQQRQGKSPQLLVYNAETLAEDVPSRFSGSGSGTQFSLKISSLQTDDFGTYYCQQHYGTPYTFGGGTNLEIE
B2: 23F4 chimera (antibody, V domains shown)
VH: QVQLQQSGPELVKPGTSMKISCKTSDYTLTSHYLHWVKQRPGQGLEWIGWIFPGDDKTKYNEKFKGKATLTSDKTSNTAYMQLSSLTSEESAVYFCARGTKYLNWNFDVWGTGTTVTVSS
VL: DIVLTQPQKFLSTSVGDRVSVTCKANQNVGTTLAWYQQKPGQSPKALIYSASYRYSGVPDRFTGSGSGTDFTLTISNVQSEDLAEYFCHQYTTYPLTFGGGTKLEIK
B3: Hu50C5-13 (antibody, V domains shown)
VH: EVQLVQSGAEVKKPGSSVKVSCKASGYIFSPYSIHWVRQAPGQGLEWIGYINPSTGYIEYNQHFKDRVTITADKSTSTAYMELRSLRSEDTAVYYCARGGDYEGYFDYWGQGTTVTVSS
VL: DIQMTQSPSSLSASVGDRVTITCRLNENIYSFLAWYQQKPGKAPKLLVYNAETLAEDVPSRFSGSGSGTDFTLTISSLQPEDFATYYCQQHYGTPYTFGGGTKVEIK
B4: Hu50C5-18 (antibody, V domains shown)
VH: B3 VH with V68T, I70L
VL: B3 VL
B5: Hu50C5-17 (antibody, V domains shown)
VH: B3 VH with V68T, I70L
VL: B3 VL with D57G
B6: Hu50C5-10 (antibody, V domains shown)
VH: B3 VH with I48M
VL: B3 VL with A43S, D70Q
B7: Hu50C5-20 (antibody, V domains shown)
VH: B3 VH with V68T, I70L
VL: B3 VL with A43S, D70Q
B8: Hu50C5-4 (antibody, V domains shown)
VH: B3 VH with Y27G, I28T, I48M
VL: B3 VL with D70Q
B9: Hu50C5-15 (antibody, V domains shown)
VH: B3 VH
VL: B3 VL with A43S, D70Q
B10: Hu50C5-11 (antibody, V domains shown)
VH: B3 VH
VL: B3 VL with V48I, D57G
B11: Hu50C5-9 (antibody, V domains shown)
VH: B3 VH with I48M
VL: B3 VL with D70Q
B12: Hu50C5-14 (antibody, V domains shown)
VH: B3 VH
VL: B3 VL with D70Q
B13: Hu50C5-5 (antibody, V domains shown)
VH: B3 VH with Y27G, I28T, I48M
VL: B3 VL with A43S, D70Q
B14: Hu50C5-19 (antibody, V domains shown)
VH: B3 VH with V68T, I70L
VL: B3 VL with D70Q
B15: Hu50C5-21 (antibody, V domains shown)
VH: B3 VH with S30T, V68T, I70L
VL: B3 VL with V48I, D57G
B16: Hu50C5-3 (antibody, V domains shown)
VH: B3 VH with Y27G, I28T, I48M
VL: B3 VL
B17: Hu50C5-12 (antibody, V domains shown)
VH: B3 VH
VL: B3 VL with D57G
B18: Hu50C5-7 (antibody, V domains shown)
VH: B3 VH with I48M
VL: B3 VL with D57G
B19: Hu50C5-16 (antibody, V domains shown)
VH: B3 VH with V68T, I70L
VL: B3 VL with V48I, D57G
B20: Hu50C5-8 (antibody, V domains shown)
VH: B3 VH with I48M
VL: B3 VL
B21: Hu50C5-24 (antibody, V domains shown)
VH: B3 VH with S30T, V68T, I70L
VL: B3 VL with D70Q
B22: Hu50C5-2 (antibody, V domains shown)
VH: B3 VH with Y27G, I28T, I48M
VL: B3 VL with D57G
B23: Hu50C5-1 (antibody, V domains shown)
VH: B3 VH with Y27G, I28T, I48M
VL: B3 VL with V48I, D57G
B24: Hu50C5-22 (antibody, V domains shown)
VH: B3 VH with S30T, V68T, I70L
VL: B3 VL with D57G
B25: Hu50C5-23 (antibody, V domains shown)
VH: B3 VH with S30T, V68T, I70L
VL: B3 VL
B26: Hu50C5-6 (antibody, V domains shown)
VH: B3 VH with I48M
VL: B3 VL with V48I, D57G
B27: Hu23F4-36 (antibody, V domains shown)
VH: EVQLVQSGAEVKKPGASVKVSCKASDYTLTSHYLHWVRQAPGQGLEWIGWIFPGDDKTKYNEKFKGRATLTSDTSISTAYMELSRLRSDDTAVYYCARGTKYLNWNFDVWGQGTTVTVSS
VL: DIQLTQSPSFLSASVGDRVTITCKANQNVGTTLAWYQQKPGKAPKLLIYSASYRYSGVPSRFSGSGSGTEFTLTISSLQPEDFATYYCHQYTTYPLTFGGGTKVEIK
B28: Hu23F4-30 (antibody, V domains shown)
VH: B27 VH with D26G, L29F, I48M, A68V
VL: B27 VL with L46A, S60D, E70D
B29: Hu23F4-23 (antibody, V domains shown)
VH: B27 VH with D26G, L29F, I48M, A68V, L70M, S72R
VL: B27 VL with A43S, L46A, S60D, E70D, Y87F
B30: Hu23F4-32 (antibody, V domains shown)
VH: B27 VH with D26G, L29F
VL: B27 VL
B31: Hu23F4-33 (antibody, V domains shown)
VH: B27 VH with D26G, L29F
VL: B27 VL with L46A
B32: Hu23F4-24 (antibody, V domains shown)
VH: B27 VH with D26G, L29F, I48M, A68V, L70M
VL: B27 VL
B33: Hu23F4-31 (antibody, V domains shown)
VH: B27 VH with D26G, L29F, I48M, A68V
VL: B27 VL with A43S, L46A, S60D, E70D, Y87F

Legend:
Experiment in all cases: ELISA
[1] = biological target: T1, recombinant human GM-CSF protein (human, UniProt P04141 18-144)
[2] = biological target: T1, recombinant human GM-CSF protein; remark: listed apart in the source
[3] = biological target: T1, recombinant human GM-CSF protein; remark: listed apart in the source
[4] = biological target: T1, recombinant human GM-CSF protein; remark: listed apart in the source

T1 sequence (P04141 18-144): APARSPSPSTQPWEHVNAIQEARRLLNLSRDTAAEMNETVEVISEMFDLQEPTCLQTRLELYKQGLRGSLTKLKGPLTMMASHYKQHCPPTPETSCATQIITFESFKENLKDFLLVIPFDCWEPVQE

Row | Binder | EC50 [1] | EC50 [2] | also measured
1 | B1 | 0.547 nM | 0.464 nM and 0.483 nM | 
2 | B2 |  |  | EC50 [3]: 0.092 nM and 0.0881 nM; EC50 [4]: 0.081 nM and 0.0923 nM
3 | B3 |  | 3.52 nM | 
4 | B4 | 0.612 nM |  | 
5 | B5 | 0.215 nM |  | 
6 | B6 |  | 1.03 nM | 
7 | B7 | 0.305 nM |  | 
8 | B8 |  | 1.18 nM | 
9 | B9 | 2.72 nM |  | 
10 | B10 |  | 0.462 nM | 
11 | B11 |  | 0.568 nM | 
12 | B12 |  | 1.94 nM | 
13 | B13 |  | 0.534 nM | 
14 | B14 | 0.272 nM |  | 
15 | B15 | 0.339 nM |  | 
16 | B16 |  | 1.85 nM | 
17 | B17 |  | 3.24 nM | 

Row | Binder | EC50 [1] | EC50 [2] | also measured
18 | B18 |  | 0.844 nM | 
19 | B19 | 0.46 nM |  | 
20 | B20 |  | 0.438 nM | 
21 | B21 | 0.305 nM |  | 
22 | B22 |  | 2.19 nM | 
23 | B23 |  | 2.75 nM | 
24 | B24 | 0.889 nM |  | 
25 | B25 | 0.356 nM |  | 
26 | B26 |  | 0.345 nM | 
27 | B27 |  |  | EC50 [3]: 0.0384 nM
28 | B28 |  |  | EC50 [3]: 0.0411 nM
29 | B29 |  |  | EC50 [3]: 0.047 nM
30 | B30 |  |  | EC50 [3]: 0.0873 nM
31 | B31 |  |  | EC50 [3]: 0.0954 nM
32 | B32 |  |  | EC50 [3]: 0.0907 nM
33 | B33 |  |  | EC50 [3]: 0.0424 nM
